# Measured values reported in patent US20230101735A1, “ANTI-TROP-2 ANTIDODY-EXATECAN ANALOG CONJUGATE AND MEDICAL USE THEREOF” (JIANGSU HENGRUI MEDICINE CO., LTD., priority 2020, published 2023).
# Where a chain is given by its changes, count along the chain named.
# T1: hTROP-2 (Homo sapiens, UniProt P09758)
# T1 sequence (P09758 27-274): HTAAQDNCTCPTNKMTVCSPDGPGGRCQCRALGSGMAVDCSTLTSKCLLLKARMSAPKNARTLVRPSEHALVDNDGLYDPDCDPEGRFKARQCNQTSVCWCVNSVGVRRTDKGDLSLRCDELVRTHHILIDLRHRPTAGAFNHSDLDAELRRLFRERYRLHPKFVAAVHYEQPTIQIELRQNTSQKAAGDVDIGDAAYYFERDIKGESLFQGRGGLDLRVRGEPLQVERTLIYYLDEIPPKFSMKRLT
# T2: TROP-2 expressed on tumor cell lines (FaDu, HCC827, Colo205, DMS53, SK-OV-3) (human, UniProt P09758 27-323)
# T2 sequence: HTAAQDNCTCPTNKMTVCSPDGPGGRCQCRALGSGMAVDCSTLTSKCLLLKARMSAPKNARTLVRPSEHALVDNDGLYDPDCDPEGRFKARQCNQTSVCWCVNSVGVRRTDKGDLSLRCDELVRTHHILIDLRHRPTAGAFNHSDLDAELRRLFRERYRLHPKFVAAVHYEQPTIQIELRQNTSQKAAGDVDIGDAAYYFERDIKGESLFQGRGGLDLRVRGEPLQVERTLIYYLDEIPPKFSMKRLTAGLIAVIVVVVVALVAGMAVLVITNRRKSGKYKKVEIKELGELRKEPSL
# T3: human TROP-2 on stably transfected CHO-K1 cells (CHO-K1/hTROP-2) (human, UniProt P09758 27-323)
# T3 construct: Full-length TROP-2 (Genbank NP_002344.2) expressed from a lentiviral vector; also called stably transfected TROP-2-expressing CHOK1 cells; hTROP-2 protein-expressing cells
# T3 sequence: T2 sequence
# T4: hTROP-2 protein (huTROP-2 protein, His27-Thr274, accession No. NP_002344.2) (human, UniProt P09758 27-274)
# T4 construct: No tag is stated for this construct; also called antigen hTROP-2
# T4 sequence: T1 sequence (P09758 27-274)
# B1: ADC-4 (TINA-58, n=3.99) (antibody, human IgG1, kappa, V domains shown)
# VH: QVQLVQSGAEVKKPGASVKVSCKASGYTFTTAGMQWVRQAPGQGLEWMGWINTHSGVPKYAEDFKGRVTISADTSTSTAYLQLSSLKSEDTAVYYCARSGFGSSYWYFDVWGQGTLVTVSS
# VL: DIQMTQSPSSLSASVGDRVTITCKASQDVSTAVAWYQQKPGKAPKLLIYSASYRYTGVPSRFSGSGSGTDFTLTISSLQPEDFAVYYCQQHYITPLTFGQGTKLEIKR
# modifications: compound 58 coupled to cysteine thiols after TCEP reduction; positions not given; compound 58 (linker-drug) coupled to cysteine thiols after TCEP reduction; mean n=3.99 per antibody, positions not given
# B2: TINA anti-TROP-2 antibody (control molecule) (antibody, human IgG1, kappa, V domains shown)
# VH: B1 VH
# VL: B1 VL
# B3: PD3 anti-TROP-2 antibody (antibody, human IgG1, kappa, V domains shown)
# VH: EVQLVQSGSELKKPGASVKVSCKASGYTFTNYGMNWVKQAPGQGLKWMGWINTYTGEPTYTQDFKGRFAFSLDTSVSTAYLQISSLKAEDTAVYYCARGGFGSSYWYFDVWGQGTLVTVSS
# VL: B1 VL with M4L, T20S, T31I, S60D, Q100A, L104V
# notes: CDR-mutated variant designed on the hRS7 template; also called PD3 antibody
# B4: ADC-7 (hRS7-9-A, n=3.72) (antibody, human IgG1, kappa, V domains shown)
# VH: B3 VH with E1Q, V5Q, Q62D, E89D, Y95F, T115S
# VL: B1 VL with M4L, T20S, T31I, S60D, Q100A, L104V
# modifications: compound 9-A coupled to cysteine thiols after TCEP reduction; positions not given; compound 9-A coupled to cysteine thiols after TCEP reduction; mean n=3.72 per antibody, positions not given
# B5: ADC-5 (PD3-58, n=3.88) (antibody, human IgG1, kappa, V domains shown)
# VH: B3 VH
# VL: B1 VL with M4L, T20S, T31I, S60D, Q100A, L104V
# modifications: compound 58 coupled to cysteine thiols after TCEP reduction; positions not given; compound 58 coupled to cysteine thiols after TCEP reduction; mean n=3.88 per antibody, positions not given
# B6: hRS7 anti-TROP-2 antibody (control molecule) (antibody, human IgG1, kappa, V domains shown)
# VH: B3 VH with E1Q, V5Q, Q62D, E89D, Y95F, T115S
# VL: B1 VL with M4L, T20S, T31I, S60D, Q100A, L104V
# How the values were obtained:
# hTROP-2 = target: T1, hTROP-2; assay: Antibody protein level binding assay (ELISA); settings: absorbance at 450 nm
# Procedure: (§1) hTROP-2 protein was diluted to 1 μg/mL with PBS buffer at pH 7.4 (Shanghai BasalMedia Technologies Co., LTD., B320), added into a 96-well microplate at 100 μL per well, and incubated at 4° C. overnight. After the liquid was discarded, 300 μL of 5% skim milk (BD, 232100) diluted with PBS was added into each well for blocking and incubated at 37° C. for 2 h. After the blocking was completed, the blocking solution was discarded; after the plate was washed 3 times with PBST buffer (pH 7.4, PBS containing 0.1% tween-20), 100 μL of a gradient diluted antibody solution was added into each well and incubated at 37° C. for 1 h. After the incubation was completed, the plate was washed 3 times with PBST buffer, and 100 μL of 1:8000 diluted mouse anti-human IgG (H+L) (Jackson ImmunoResearch, 209-035-088) was added into each well and incubated at 37° C. for 1 h. After the plate was washed 3 times with PBST buffer, 100 μL of TMB chromogenic substrate (KPL, 5120-0077) was added into each well and incubated at room temperature for 10-15 min, and the reaction was terminated by adding 50 μL of 1 M H2504 into each well. The plate was detected for the absorbance at 450 nm using a microplate reader, the binding curves of antibodies to antigen were fitted with software, and the EC50 value was calculated.
# TROP-2 = assay: Antibody endocytosis assay (DT3C cell killing); assay type: cell-based; settings: antibody-DT3C mixture, three days, CTG
# [1] = target: T2, TROP-2 expressed on tumor cell lines …; assay: cell-based or functional assay
# [2] = target: T3, human TROP-2 on stably transfected …; assay: flow cytometry on stably transfected TROP-2-expressing CHOK1 cells
# Procedure: (§2) After centrifugation and removal of the supernatant, the test antibodies that was diluted with FACS buffer to different concentrations were added at 50 μL/well. The plate was incubated in the dark in a 4° C. refrigerator for 1 h. The plate was washed 3 times with FACS buffer by centrifugation at 300 g, and Alexa Fluor 488 goat anti-human IgG (H+L) (invitrogen, A-11013) at working concentration was added. The plate was incubated in the dark in a 4° C. refrigerator for 40 min. The plate was washed 3 times with FACS buffer by centrifugation at 300 g and tested on a BD FACSCantoII flow cytometer for geometric mean fluorescence intensity (MFI). The binding EC₅₀ value of the antibody to the stably transfected TROP-2-expressing cells was calculated.
# [3] = target: T4, hTROP-2 protein (huTROP-2 protein, …); assay: SPR (Biacore T200), antibody captured on chip, hTROP-2 as analyte, 1:1 Langmuir fit
# From the text: The affinity of antibody for TROP-2 was detected in a form of a capture antibody. […] After dissociation was completed for each assay cycle, the chip was washed clean and regenerated with regeneration buffer, Glycine1.5 (Cat. #BR100354, GE) or 3 M MgCl₂ (from Human antibody capture kit, Cat. #BR100839, GE). After the assay was completed, the data were fitted with (1:1) Langmuir model using GE Biacore T200 Evaluation version 3.0 to obtain affinity values.
# [4] = target: T4, hTROP-2 protein (huTROP-2 protein, …); assay: ELISA, plate coated with hTROP-2 protein at 1 ug/mL, anti-human IgG detection, OD450
# Procedure: as §1, with “EC₅₀” for “EC50”
# [5] = target: T3, human TROP-2 on stably transfected …; assay: flow cytometry (geometric mean fluorescence) on stably transfected TROP-2-expressing CHOK1 cells, Alexa Fluor 488 anti-human IgG detection
# Procedure: as §2
# [6] = target: T2, TROP-2 expressed on tumor cell lines …; assay: cell-based or functional assay; remark: listed apart in the source
molecule,measurement,setting,value
"hRS7: control anti-TROP-2 antibody, heavy chain SEQ ID NO: 15, light chain SEQ ID NO: 16, constructed with reference to WO03074566 [reference compound]",Emax (OD value),hTROP-2,1.37 OD value
same,Emax,TROP-2,98.5%
B1,"EC50 (nM), killing of Colo205 cells",[1],59.8 nM
same,"EC50 (nM), killing of DMS53 cells",[1],75.6 nM
same,"EC50 (nM), killing of FaDu cells (CTG, 6 days)",[1],0.53 nM
same,"EC50 (nM), killing of HCC827 cells",[1],0.27 nM
same,"Emax (%), killing of Colo205 cells",[1],99.7%
same,"Emax (%), killing of DMS53 cells",[1],89.8%
same,"Emax (%), killing of FaDu cells",[1],101%
same,"Emax (%), killing of HCC827 cells",[1],88.2%
same,"Emax (%), killing of SK-OV-3 cells",[1],49.1%
B2,EC50,[2],3.55 nM
same,Emax (MFI),[2],14200 MFI
same,Kd,[3],21.5 nM
same,EC50,[4],16.1 nM
same,Emax (OD value),[4],1.39 OD
same,EC50 (read off the curve),[5],~4 mg/L
B3,EC50,[2],1.57 nM
same,Emax (MFI),[2],16700 MFI
same,Kd,[3],0.686 nM
same,EC50,[4],13.6 nM
same,Emax (OD value),[4],1.4 OD
same,EC50 (read off the curve),[5],~2 mg/L
B4,"EC50 (nM), killing of Colo205 cells",[1],52.8 nM
same,"EC50 (nM), killing of DMS53 cells",[1],72.9 nM
same,"EC50 (nM), killing of FaDu cells (CTG, 6 days)",[1],0.31 nM
same,"EC50 (nM), killing of HCC827 cells",[1],0.18 nM
same,"Emax (%), killing of Colo205 cells",[1],99.5%
same,"Emax (%), killing of DMS53 cells",[1],88.7%
same,"Emax (%), killing of FaDu cells",[1],101%
same,"Emax (%), killing of HCC827 cells",[1],89.3%
same,"Emax (%), killing of SK-OV-3 cells",[1],66.1%
B5,"EC50 (nM), killing of Colo205 cells (second parallel assay)",[6],25.6 nM
same,"EC50 (nM), killing of DMS53 cells (second parallel assay)",[6],25.7 nM
same,"EC50 (nM), killing of FaDu cells (second parallel assay)",[6],0.14 nM
same,"EC50 (nM), killing of HCC827 cells (second parallel assay)",[6],0.13 nM
B6,EC50,[2],2.31 nM
same,Emax (MFI),[2],16000 MFI
same,Kd,[3],0.987 nM
same,EC50,[4],18.3 nM
same,Emax (OD value),[4],1.37 OD
same,EC50 (read off the curve),[5],~3 mg/L
